Key:
[1] = biological target: shFcRn (intact soluble human FcRn, heavy chain and beta2-microglobulin) (human) (UniProt P55899); test: ELISA pH 5.1, purified nanobody 0-50 nM on coated shFcRn, anti-myc detection
[2] = biological target: T1, human beta2-microglobulin (human, UniProt P61769 21-119); test: ELISA on coated b2-microglobulin from human urine, pH 5.1
T1 construct: also called b2-microglobulin; soluble human b2-microglobulin

[3] = biological target: T2, shFcRn-GST (GST-fused soluble human FcRn, heterodimeric) (human, UniProt P55899 24-290; P61769 21-119); test: SPR Biacore 3000, Nb 500-15 nM over immobilized shFcRn-GST, pH 7.4, 1:1 Langmuir model
T2 construct: Eukaryotically expressed; immobilized by amine coupling on CM5 chips or used in ELISA; also called GST-fused shFcRn; not shown: GST fusion partner

[4] = biological target: T2, shFcRn-GST (GST-fused soluble human …); test: SPR Biacore 3000, immobilized shFcRn-GST, pH 6.0, equilibrium responses in a steady-state affinity model
[5] = biological target: T2, shFcRn-GST (GST-fused soluble human …); test: SPR Biacore 3000, immobilized shFcRn-GST, pH 7.4, equilibrium responses in a steady-state affinity model
[6] = biological target: T2, shFcRn-GST (GST-fused soluble human …); test: SPR Biacore 3000, Nb 500-15 nM over immobilized shFcRn-GST, pH 6.0, 1:1 Langmuir model
[7] = biological target: T3, human serum albumin (HSA) (human, UniProt P02768 25-609); test: SPR Biacore T100, periplasmic extract over immobilized human serum albumin, pH 7 and pH 5
T3 construct: also called monomeric HSA

| fold improvement in binding against the monovalent nanobody [1] [fold] | binding result [2] | Kd [3] [nM] | Kd [4] [nM] | Kd [5] [nM] | Kd [6] [nM] | fold difference in off rate, pH 5 against pH 7 [7] [fold] | Binder |
| --- | --- | --- | --- | --- | --- | --- | --- |
| 10 | no binding (tested: 0-50 nM) | – | – | – | – | – | 218-H4_20GS_218-H4 (bivalent Nb 218-H4) (VHH) EVQLVESGGALVQAGGSLRLSCVASGRTFNSIGMGWFRQAPGKERDFIGGITWDGRDTYYTDSVKGRFTISRDNAKNTVYLQMNSLKPWDTAVYYCAANRDPWIATSYQDYAYWGQGTQVTVSSGGGGSGGGGSGGGGSGGGGSEVQLVESGGALVQAGGSLRLSCVASGRTFNSIGMGWFRQAPGKERDFIGGITWDGRDTYYTDSVKGRFTISRDNAKNTVYLQMNSLKPWDTAVYYCAANRDPWIATSYQDYAYWGQGTQVTVSS |
| – | no binding (tested: 0-50 nM) | ~52.5 | 22 | 55.6 | ~21.2 | – | Nb 218-H4 (VHH, Anti-FcRn Nanobody, family V; detected through a myc tag; also called monovalent nanobody) VHH: EVQLVESGGALVQAGGSLRLSCVASGRTFNSIGMGWFRQAPGKERDFIGGITWDGRDTYYTDSVKGRFTISRDNAKNTVYLQMNSLKPWDTAVYYCAANRDPWIATSYQDYAYWGQGTQVTVSS |
| – | – | – | – | – | – | 0.54 | 4A9 (VHH) VHH: EVQLVESGGGLVQAGGSLRLSCEASGFTLDYSGVGWFRQAPGKERELVSCISRGGDRAGYANSVKGRFTMSRDNAKNILYLQMNSLKPEDTAVYYCAATHSGSGCYDGAIDYWGKGTLVTVSS |
